# Measurements: article PMC12152837, “Semaglutide Aggregates into Oligomeric Micelles and Short Fibrils in Aqueous Solution” (Biomacromolecules, 2025)
# Several values for one entry are separate records, joined by “and”; a condition that tells them apart may be missing. Identical values can stand only once.
# Experiments:
# [1] = pH of aqueous solutions (pH strips); type: physicochemical
# Procedure: (§1) Semaglutide powder was weighed, and the samples were prepared in glass vials using ultrapure water. To monitor the aggregation and stability, some samples were left to age up to 40 days in the fridge at 4 °C, protected from the light. The pH was observed just after preparation and after 40 days of incubation at 4 °C using pH strips due to the small volume of sample available. No evidence of microemulsion formation was observed. ^20 pH values were recorded as follows: 1 wt % fresh pH 5.5, 1 wt % aged: pH 7, 0.1 wt % fresh: pH 6.5, 0.1 wt % aged: pH 7. It is notable that the pH crosses the pK a of the N-terminal histidine (pK a = 6 is the accepted value for isolated histidine) for the more concentrated solution upon aging.
# [2] = Small-angle X-ray scattering (SAXS) of aggregates in water; type: physicochemical; details: for effective charge modulus per micelle z eff: Hayter–Penfold structure factor fit; for micelle inner core radius Ri / micelle outer radius Ro ± Gaussian polydispersity: core-shell sphere form factor
# Procedure: as §1
# SAXS experiments were performed on beamline B21 at Diamond Light Source (Harwell, UK) and SWING at synchrotron SOLEIL (Gif-sur-Yvette, France) and on the labSAXS instrument at Diamond Light Source.
# On B21, the sample solutions were loaded into the 96-well plate of an EMBL BioSAXS robot and then injected via an automated sample exchanger into a quartz capillary (1.8 mm internal diameter) in the X-ray beam. The quartz capillary was enclosed in a vacuum chamber to avoid parasitic scattering. After the sample was injected into the capillary and reached the X-ray beam, the flow was stopped during the SAXS data acquisition. Beamline B21 operates with fixed camera length (3.9 m) and fixed energy (12.4 keV). The images were captured by using a PILATUS 2 M detector. Data processing was performed using the dedicated beamline software ScÅtter. […]
# SAXS experiments (extending to higher q) were also performed using a lab-based Xeuss 3.0 (Xenocs, France) instrument at Diamond Light Source, equipped with a liquid gallium MetalJet X-ray source (Excillum, Sweden) with an energy of 9.24 keV, corresponding to a wavelength of 1.34 Å. SAXS patterns were measured for 28800 s with an incident X-ray photon flux of roughly 4.06 × 10^6 ph/s on an EIGER2 R 1M detector (Dectris, Switzerland), and the sample-to-detector distance was set to 315 mm, giving a q range of 0.17–1.1 nm^–1. The beam size is roughly 0.4 × […] on the sample. The sample environment was a custom-designed low-noise flow-through cell having a thickness of roughly 0.7 mm and an area of 1.1 mm × 1.1 mm. The window material is silicon nitride. Silver behenate (layer spacing, d = 58.38 Å) was used to calibrate the SAXS data. SAXS images were analyzed using the IDL-based AXcess software package or software DAWN.
# The association number of the micelle can be obtained in a model-independent fashion from the forward scattering intensity of the SAXS data in dilute solution. , The measured synchrotron SAXS data presented here is in absolute units (cm^–1) and the forward scattering (at q = 0) can be written as 1 I(0)=cmicMmic[r0vp(ρl−ρ0)]^2/NA Here, c mic is the concentration of micelles, M mic is the micelle molar mass, r 0 is the classical electron radius [0.28179 × 10^–12 cm e ^–1], v p is the partial specific volume, and ρl and ρ0 represent the lipopeptide and solvent (water) electron density. […] Rearranging eq gives 2 Mmic=I(0)NA/cmic[r0vp(ρl−ρ0)]^2 […]
# Table S1. Fit parameters to the SAXS data in Fig.2b using a core-shell sphere form form factor with the Hayter-Penfold RMSA structure factor.1 The monodisperse approximation to factor the form and structure factors of isotropic solutions of centrosymmetric particles is assumed. Fitting performed using SASfit.2-3 […]
# (Diamond synch.) (Diamond synch.) (Diamond synch.) (Lab SAXS)b […]
# Key: Core-Shell Sphere Form factor: Ro: outer radius (σc Gaussian polydispersity in R0), Ri: inner radius, µ: ratio of scattering contrast of inner core/outer core, η: scattering contrast of core. Structure factor: RHS, hard sphere radius, φ: effective volume fraction zeff: effective charge modulus, I: ionic strength (temperature fixed at T = 293 K).
# Gaussian coils: Rg: radius of gyration, Ic: intensity. Background: BG (constant). […]
# [3] = Nile red fluorescence assay of critical micelle concentration; type: physicochemical; details: 45-day aged sample in water, stored at 4 °C; 5 μM Nile red, λexc 550 nm, peak fluorescence intensity at 635 nm versus concentration
# Procedure: Fluoroscence of tryptophan in semaglutide was excited at λexc= 295 nm, and fluorescence emission spectra were measured using a Cary Eclipse spectrofluorometer (Agilent, Didcot, UK) with excitation and emission slits of 5 nm. The spectra were recorded from 300 to 600 nm. The temperature was maintained at 20 °C during the measurements. This protocol was performed using fresh Semaglutide samples and then repeated using the same samples stored at 4 °C for 40 days, protected from the light. To determine the critical aggregation concentration (CAC) of semaglutide using Nile red, Semaglutide samples (45-day aged) were prepared in 5 μM of Nile red. The wavelength for excitation was set at λexc = 550 nm with 5 nm windows, and spectra were collected from 570 to 750 nm.
# SI Fig.S13. Nile red fluorescence assay of critical micelle concentration (CMC) for a
# 45-day aged sample. (a) Plot of peak fluorescence intensity (l = 635 nm) versus
# concentration, (b) Original fluorescence spectra.
# Fluorescence Intensity (l635 nm)
# Fluorescence intensity / arb. units […]
# [4] = Cryogenic-TEM imaging of aggregates; type: physicochemical
# Procedure: Semaglutide powder was weighed, and the samples were prepared in glass vials using ultrapure water. […] The pH was observed just after preparation and after 40 days of incubation at 4 °C using pH strips due to the small volume of sample available. No evidence of microemulsion formation was observed. ^20 pH values were recorded as follows: 1 wt % fresh pH 5.5, 1 wt % aged: pH 7, 0.1 wt % fresh: pH 6.5, 0.1 wt % aged: pH 7. It is notable that the pH crosses the pK a of the N-terminal histidine (pK a = 6 is the accepted value for isolated histidine) for the more concentrated solution upon aging.
# Imaging was carried out using a field emission cryo-electron microscope (JEOL JEM-3200FSC), operating at 200 kV. Images were taken in bright field mode and using zero loss energy filtering (omega type) with a slit width of 20 eV. Micrographs were recorded using a Gatan Ultrascan 4000 CCD camera. The specimen temperature was maintained at −187 °C during the imaging. Vitrified specimens were prepared by using an automated FEI Vitrobot device using Quantifoil 3.5/1 holey carbon copper grids with a hole size of 3.5 μm. Just prior to use, grids were plasma cleaned using a Gatan Solarus 9500 plasma cleaner and then transferred into the environmental chamber of a FEI Vitrobot at room temperature and 100% humidity. Thereafter, 3 μL of sample solution was applied on the grid, and it was blotted twice for 5 s and then vitrified in a 1/1 mixture of liquid ethane and propane at a temperature of −180 °C. The grids with vitrified sample solution were maintained at liquid nitrogen temperature and then cryo-transferred to the microscope.
# [5] = ESI-MS integrity and appearance of solution after aging; type: physicochemical
# Procedure: Semaglutide was purchased from Bioserv (Calibre Scientific, Rotherham, UK). The purity by HPLC was >95%, and it was supplied in nonsalt (base) form. The molar mass is M = 4115.7 g mol^–1 (4113.6 g mol^–1 expected). Purity (by HPLC) is >98%.
# as §1
# [6] = tested on: Caco-2 cells; experiment: Transepithelial electrical resistance (TEER) transwell permeability assay; type: cell-based; details: Caco-2 monolayer on transwell, DMEM without serum, 37 °C, pH 7.4, duplicate wells, relative to DMEM control
# Procedure: As a model of the gut epithelium, 1.5 × 10^5 Caco-2 (ATCC, EUA) immortalized colorectal adenocarcinoma cells were seeded into 12 mm Millicell hanging cell culture transwells, with a PET lower membrane permeated by pores 0.4 μm in diameter. The transwells were then inserted into a 12-well plate to create a bicameral chamber system separated by the transwell PET membrane. The cells were cultivated until reaching confluence in DMEM supplemented with 10% FBS for at least 3 weeks before starting the TEER assay in order to form semipermeable membranes composed of Caco-2 cells separating the two chambers. For the TEER assay, a multimeter (TLC Electrical, UK). The microelectrodes were immobilized in a chopstick pattern and coated in carbon conductive ink to prevent corrosion, similar to previous reports using low-cost Volt-ohmeters for TEER. −
# The resistance for the Caco-2 membrane tissue (R tissue) is measured in Ohms (Ω) and defined as Rtissue=RTotal−RBlank
# This represents the total resistance of the system containing the semipermeable membranes minus the initial resistance from the cell containing only media or PBS. […]
# The area calculated for the transwells used in this assay is M Area (cm^2) = 1.12 cm^2. […] The TEER was calculated and is reported as % values relative to controls incubated without semaglutide.
# [7] = 0.5 wt % in water, aged 40 days, Diamond synchrotron
# [8] = 0.5 wt %, aged 40 days, Diamond synchrotron, fixed for the fits
# [9] = 1 wt % in water, aged 40 days, Diamond synchrotron
# [10] = 1 wt %, aged 40 days, Diamond synchrotron, fixed for the fits
substance,measurement,setting,value
Semaglutide,pH of solution,"[1]; 0.1 wt % in ultrapure water, aged 40 days at 4 °C",7
same,pH of solution,"[1]; 0.1 wt % in ultrapure water, fresh",6.5
same,pH of solution,"[1]; 1 wt % in ultrapure water, aged 40 days at 4 °C",7
same,pH of solution,"[1]; 1 wt % in ultrapure water, fresh",5.5
same,radius of gyration Rg (Gaussian coils),"[2]; 0.1 wt % in water, aged 40 days, Diamond synchrotron",1.57 nm
same,micelle molar mass M mic,"[2]; 0.1 wt % in water, aged 40 days, from SAXS forward scattering I(0) = 0.0025 cm^–1",9111 g mol^–1
same,association number p,"[2]; 0.1 wt % in water, aged 40 days, from SAXS forward scattering I(0), p = Mmic/Mmol",≈ 2.2
same,hard sphere radii R HS from the structure factor,[2]; 0.5 and 1 wt % aged solutions,2.23–2.54 nm
same,hard sphere radius RHS,[2]; [7],2.23 nm
same,effective charge modulus per micelle z eff,[2]; [7],9.81
same,micelle inner core radius Ri,[2]; [8],1.50 nm
same,micelle outer radius Ro ± Gaussian polydispersity,[2]; [8],2.31±0.59 nm
same,hard sphere radius RHS,[2]; [9],2.54 nm
same,effective charge modulus per micelle z eff,[2]; [9],10.8
same,association number p,"[2]; 1 wt % in water, aged, rough estimate from the ratio of low-q intensity for 1 and 0.1 wt %",12–15
same,hard sphere radius RHS,"[2]; 1 wt %, Lab SAXS",2.54 nm
same,radius of gyration Rg (additional Gaussian coil term),"[2]; 1 wt %, Lab SAXS, term for high q scattering",0.8 nm
same,effective charge modulus per micelle z eff,"[2]; 1 wt %, Lab SAXS",9.00
same,micelle inner core radius Ri,"[2]; 1 wt %, Lab SAXS",1.50 nm
same,micelle outer radius Ro ± Gaussian polydispersity,"[2]; 1 wt %, Lab SAXS",2.31±0.59 nm
same,micelle inner core radius Ri,[2]; [10],1.50 nm
same,micelle outer radius Ro ± Gaussian polydispersity,[2]; [10],2.31±0.59 nm
same,micelle radius,"[2]; as determined from cryo-TEM and SAXS, aged solutions at sufficiently high concentration",2 nm
same,critical micelle concentration (CMC),[3],0.06 wt % and 0.06 ± 0.005 wt %
same,diameter of micelle-like structures,"[4]; 1 wt % in water, aged 40 days at 4 °C, cryo-TEM",< 5 nm
same,"morphology by cryo-TEM, further aging","[4]; 1 wt % sample aged 79 days, compared to the 40-day aged sample",no further change in morphology
same,morphology by cryo-TEM,[4]; freshly dissolved 1 wt % solution in water,irregular clustered morphology
same,chemical stability in solution (degradation),"[5]; aqueous solution, 40 days of aging at 4 °C protected from light, ESI-MS",No evidence for degradation in solution was observed
same,appearance of solutions,[5]; solutions in pure water prepared in glass vials,transparent
same,"TEER, % of the initial TEER","[6]; aged (40 days, 4 °C) semaglutide 0.02 wt %, after 2–4 h",around 90%
same,"TEER, % of the initial TEER","[6]; fresh semaglutide 0.02 wt %, after 30 min",around 80%
